Measurements as given in patent CN114395035A (JIANGSU MICKEE MEDICAL TECH CO LTD; INST OF MICROBIOLOGY OF …, dated 2022).

Molecular target: SARS-CoV-2 Prototype RBD蛋白 (野生型新型冠状病毒刺突蛋白受体结合域段RBD蛋白) (SARS-CoV-2, UniProt P0DTC2 319-541)
Assay: SPR (Biacore 8K)

Binder	Kd
IMCAS-364抗体 (全抗IgG1) (antibody, V domains shown, also called 金标抗体 (胶体金标记)) VH: QVQLQESGGGVVQPGRSLRLSCAASGFTFSRYGMHWVRQAPGKGLEWVAVIWYDGSNKYYADSVKGRFTISRDNSKNTLYLQMNSLRADDTAVYYCAKQEGTYCSGGSCYSGLDYWGQGTLVTVSS VL: not shown	1.04 nM
IMCAS-123抗体 (全抗IgG1) (antibody, V domains shown, also called T1线抗体) VH: not shown VL: DIQMTQSPSSVSASVGDSVTITCRASQGISRWLAWYQQRPGKAPKLLIYAAGNLETGVPSRFSGSGSGTDFTLTISDLQAEDFATYYCQQADSFPLTFGGGTKVDIKR	0.18 nM
